± gives the standard deviation of the averaged measurements.
Tested on: Saccharomyces cerevisiae
Test: protein stability index of tFT-peptide fusion (C-terminal peptide) (PSI (0-1 scale)); higher = more stable (slower turnover)
Settings: genetic background: wild type; temperature: 30 C
Description: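 Multiplexed protein stability (MPS) profiling in S. cerevisiae. Random 12-aa peptides (tFT-X12 library) are fused to the C-terminus of a sfGFP-mCherry tandem fluorescent timer, after mCherry and a GGGS linker. Cells are FACS-sorted into 8 mCherry/sfGFP bins and deep-sequenced. The protein stability index (PSI) is the read-weighted bin average, scaled from 0 (unstable) to 1 (stable). Only peptides with >10 reads are reported; cells were grown at 30 °C in SC-His with glucose.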
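Further: PSI is a weighted mean of sequencing reads over stability bins, variants kept only with over 10 reads, mCherry proximal and sfGFP distal, peptide attached via GGGS linker.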

Row | Sequence | protein stability index
1 | EARMGVGRCGTG | 0.661 ± 0.022
2 | EARRHTKHPGKI | 0.753 ± 0.066
3 | EASGPGPGAKAT | 0.6526 ± 0.0026
4 | EATGSLISFCGW | 0.665 ± 0.068
5 | EAVCHQFVELIG | 0.605 ± 0.02
6 | ECESGKFSLGGT | 0.68 ± 0.02
7 | ECGLGGCGGLGV | 0.705 ± 0.03
8 | ECTTTWLVPQHL | 0.655 ± 0.015
9 | ECYKKFVCSCCT | 0.515 ± 0.0086
10 | EDFCMVEQPGVE | 0.7012 ± 0.0054
11 | EDILWADVPYSK | 0.759 ± 0.039
12 | EDRSITYNALIL | 0.678 ± 0.013
13 | EDRTQEIQNIHD | 0.686 ± 0.012
14 | EDSGRPGRPSTH | 0.662 ± 0.048
15 | EDYERETRKICK | 0.717 ± 0.038
16 | EEGGQGITIEES | 0.686 ± 0.12
17 | EEGGVWIRVEAG | 0.588 ± 0.019
18 | EEGKSTREKEGG | 0.685 ± 0.036
19 | EEMEKRNREKEL | 0.691 ± 0.094
20 | EENGAGVSVGKL | 0.653 ± 0.0085
21 | EETRRKKRTGKK | 0.707 ± 0.0099
22 | EEVKRKSGGKSK | 0.662 ± 0.027
23 | EGCYGVRGNTLH | 0.612 ± 0.017
24 | EGDGLVWGGQGG | 0.691 ± 0.0078
25 | EGEGQGWGGQGG | 0.6994 ± 0.0021

Row | Sequence | protein stability index
26 | EGEVGGVVLPRI | 0.696 ± 0.04
27 | EGGERERGNRER | 0.7176 ± 0.0069
28 | EGGLKIRRSRDE | 0.657 ± 0.024
29 | EGGRGGGRGVVG | 0.67 ± 0.027
30 | EGIVRYRKRGSR | 0.665 ± 0.015
31 | EGKKKKKGNRPK | 0.676 ± 0.081
32 | EGKWCGVKRGVY | 0.627 ± 0.033
33 | EGPTRIKRGRSG | 0.685 ± 0.031
34 | EGQARRAGRQGR | 0.7349 ± 0.0053
35 | EGSGEGEEAGGV | 0.6497 ± 0.0047
36 | EGSGLVVANAYP | 0.667 ± 0.022
37 | EGVAGEWRGMEM | 0.65 ± 0.014
38 | EGWVVYFEEDLE | 0.735 ± 0.017
39 | EHKVQTTTNQKE | 0.697 ± 0.011
40 | EHQNHNTARKRH | 0.69835 ± 0.00027
41 | EIGGYHLGWAKC | 0.636 ± 0.022
42 | EIIEINNVKRIK | 0.6835 ± 0.0049
43 | EIKGKLQEGRMD | 0.75 ± 0.021
44 | EINEKPGINKKI | 0.6587 ± 0.0028
45 | EIVKAHKVKKRK | 0.7166 ± 0.0045
46 | EIYARVQERLKI | 0.617 ± 0.016
47 | EKDRAVGAAKAA | 0.631 ± 0.12
48 | EKERRATCPGRK | 0.652 ± 0.051
49 | EKESERGREKDS | 0.747 ± 0.12
50 | EKIKKTEKNKNK | 0.6755 ± 0.0042

Row | Sequence | protein stability index
51 | EKKEGEREKQED | 0.751 ± 0.15
52 | EKKKKKKEEREK | 0.728 ± 0.16
53 | EKKKKKPKKKRK | 0.687 ± 0.026
54 | EKKKKKTAKQLK | 0.671 ± 0.085
55 | EKKKKTKKEKKK | 0.677 ± 0.0082
56 | EKKLKNEEKKEI | 0.717 ± 0.04
57 | EKLRGRKKGELQ | 0.668 ± 0.036
58 | EKQICKVVKIKE | 0.777 ± 0.048
59 | EKRAKKKVKIII | 0.62 ± 0.035
60 | EKRDEGAGKGEQ | 0.63 ± 0.014
61 | EKSQMPPAPAPK | 0.703 ± 0.04
62 | EKVASLVTIFDM | 0.695 ± 0.024
63 | ELASLSPCCMGM | 0.762 ± 0.15
64 | ELDFVVNKIQDW | 0.828 ± 0.096
65 | ELFGGQRLARNY | 0.637 ± 0.057
66 | ELTLTVFQVGEE | 0.602 ± 0.025
67 | ELVGRRAFRASR | 0.693 ± 0.12
68 | ENANWHSKNMSK | 0.723 ± 0.071
69 | ENEKKKKNKNKN | 0.7 ± 0.049
70 | ENIENGRPKTEP | 0.644 ± 0.012
71 | ENKTNKEKQQKQ | 0.691 ± 0.012
72 | EPCIVCPMSRQG | 0.773 ± 0.11
73 | EPGGSKRSGGRL | 0.686 ± 0.03
74 | EPWTEQPKLDSR | 0.936 ± 0.091
75 | EPYHYAWTQRSW | 0.698 ± 0.015

Row | Sequence | protein stability index
76 | EQKVRSPIEMML | 0.591 ± 0.0064
77 | EQQLSHENMQFK | 0.68 ± 0.01
78 | EQRRAGPAEVTK | 0.694 ± 0.04
79 | EQSWAIQKVRQG | 0.737 ± 0.025
80 | ERARGGRGVGGN | 0.678 ± 0.033
81 | ERARGKGAGKAE | 0.688 ± 0.019
82 | ERERQREKEKLK | 0.6735 ± 0.0038
83 | ERFRWRRNRSLG | 0.672 ± 0.16
84 | ERGEEESGRSGS | 0.7225 ± 0.0046
85 | ERGGWGVGSEVG | 0.719 ± 0.03
86 | ERGKRSTEWARK | 0.681 ± 0.042
87 | ERGRRPAGGGEK | 0.719 ± 0.028
88 | ERIGVEERKGLE | 0.658 ± 0.021
89 | ERKDPNTNKVKS | 0.678 ± 0.0083
90 | ERKKKKKERARG | 0.767 ± 0.1
91 | ERNKKKNNQVNK | 0.619 ± 0.054
92 | ERNNTICREIIE | 0.686 ± 0.026
93 | ERRELSAHVYLD | 0.665 ± 0.1
94 | ERRGGRKGRGRE | 0.662 ± 0.02
95 | ERRGSLSWPIPP | 0.722 ± 0.036
96 | ERSKTMVAGGEE | 0.686 ± 0.062
97 | ERVMMKNDSIVT | 0.623 ± 0.1
98 | ESKATIRTRARN | 0.74 ± 0.028
99 | ESKCADNKMKRK | 0.652 ± 0.022
100 | ESQKKEKTKPKN | 0.655 ± 0.023

Row | Sequence | protein stability index
101 | ESRWRSPCFIIW | 0.626 ± 0.11
102 | ESSKVRNLELLK | 0.669 ± 0.017
103 | ESTKKQSTAPKN | 0.714 ± 0.043
104 | ESVGLGDRRVCS | 0.65 ± 0.024
105 | ETEKHGIRRRQG | 0.644 ± 0.027
106 | ETKKKTNKRAEK | 0.689 ± 0.053
107 | ETRKINELRAKK | 0.642 ± 0.087
108 | ETRKKKLTNSRT | 0.622 ± 0.071
109 | EVAFGLLPPHDS | 0.701 ± 0.019
110 | EVESYVVSGDRW | 0.608 ± 0.042
111 | EVFGNVREAHCV | 0.707 ± 0.019
112 | EVVEDGAEEVGR | 0.685 ± 0.053
113 | EVWSYCPAFFVD | 0.736 ± 0.016
114 | EWALAESGYDEP | 0.746 ± 0.05
115 | EWCQVGGRGFLG | 0.74 ± 0.021
116 | EWEKKKRGNTRK | 0.642 ± 0.022
117 | EWRDSCLLKWWV | 0.725 ± 0.015
118 | EWRWCESKIITV | 0.625 ± 0.028
119 | EWVLRTLVDTNW | 0.728 ± 0.0075
120 | EWVSGWIVRWWR | 0.679 ± 0.076
121 | EYAVDAERLRTT | 0.72 ± 0.053
122 | EYDIKRRKRRNT | 0.67 ± 0.23
123 | EYISNLLSSPEP | 0.633 ± 0.013
124 | EYRCVAQHSLLH | 0.743 ± 0.049
125 | EYRRADYCLGVG | 0.547 ± 0.011

Row | Sequence | protein stability index
126 | FAAKASVLRMRR | 0.605 ± 0.029
127 | FAFPQASHPVRI | 0.664 ± 0.063
128 | FAGGAVNIGVVG | 0.71 ± 0.015
129 | FAGGPSIAAHVL | 0.712 ± 0.2
130 | FAIFSGMSFGVY | 0.693 ± 0.05
131 | FALLVSDISGRI | 0.811 ± 0.03
132 | FAPCSPKAVFCS | 0.589 ± 0.037
133 | FAPSAGGSLAGP | 0.698 ± 0.033
134 | FARPQCLPVPLP | 0.6555 ± 0.001
135 | FARQSMLSKLQI | 0.587 ± 0.033
136 | FASTEDDKKNTT | 0.6746 ± 0.0029
137 | FAWSPPACFIPS | 0.654 ± 0.011
138 | FAWYSFYSPPPR | 0.667 ± 0.0048
139 | FCGFLVLGSFPV | 0.664 ± 0.072
140 | FCLIHCIVPFPV | 0.507 ± 0.093
141 | FCNPHVGGIRRA | 0.684 ± 0.05
142 | FCPVGVFCGIFG | 0.644 ± 0.029
143 | FCRLSHYLSASP | 0.687 ± 0.17
144 | FCSVTLPSRSCV | 0.727 ± 0.098
145 | FDCMVRVRTTVV | 0.544 ± 0.027
146 | FDLVFRPVLGLL | 0.6246 ± 0.0052
